Measured values published in patent US11672792B2, “Topical formulations comprising montelukast and combinations with mussel adhesive proteins” (ENLITISA (SHANGHAI) PHARMACEUTICAL CO., LTD, priority 2017, dated 2023).
Several values for one entry are separate records, joined by “and”; a condition that tells them apart may be missing. Identical values can stand only once.

How the values were obtained:
[1] = test system: full thickness skin wounds in diabetic mice; assay: Diabetic Wound Model (Example 7); assay type: in vivo, db/db mice (C57BL/KsJ-db/db); details: Day 6; wound tissue; rhEGF 100 IU/each, Mon 100 μg/each, once daily topically
Procedure: A similar experiment with essentially the same protocol to that described in Example 6 above was carried out on 8 to 12 week-old male db/db mice (C57BL/KsJ-db/db, with a body weight of 35-45 g/mouse; supplied by Changzhou Cvens Experimental Animal Co. Ltd.).
An EMS skin biopsy punch with a […] diameter was used to make wounds.
Different drugs were administrated topically at 20 μL/wound, once daily from Day 0 to Day 18. The model group was given same amount of normal saline.
Samples were taken on Day 6, Day 12 and Day 18 post-wound inflictions.
Histological specimens were analyzed and skin regeneration, fibroblast proliferation, collagen regeneration scores (Masson score) and inflammation scores were estimated as follows.
The HE and Masson stained slices were observed under an optical microscope and were scored (1, 2 or 3 points) according to the following criteria. […]
Fibroblast proliferation was scored as the following criteria:
Inflammation was scored as the following criteria:
Collagen deposition score criterion for the Masson stained sample were as follows. […] No clear blue staining was given 0 points; blue fiber appearing in a scattered pattern was scored as 1 points; if more blue fiber appeared, this was scored as 2 points, and a diffuse blue colour was given 3 points.

[2] = test system: full thickness skin wounds; assay: Acute Wound Model (Example 6); assay type: in vivo, C57BL/6 mice
Procedure: 6-8 weeks old male C57BL/6 mice were supplied by Changzhou Cvens Experimental Animal Co. Ltd. Prior to any experiments being conducted, mice were housed under standardized conditions (at a constant temperature or 22±2° C., with alternating 12 hour periods of light and darkness), and were fed on a standard mouse diet with water, for about a week. […] The hair on the back was shaved by a baby hair shaver and depilated with cream. […] EMS skin biopsy punch (Electron Microscopy Sciences, P.O. […] Full thickness skin was removed and the depth reached the fascia. The wounds left open without suture. […] The model group was given same amount of normal saline. Recombinant Human Epidermal Growth Factor (rhEGF, Shanghai Haohai Biological Technology Co. Ltd, Shanghai, China) was purchased and prepared according to the manufacturer's instructions. Lyophilized rhEGF powder (100000 IU/vial) was dissolved in 20 mL of normal saline to make a solution with a 5000 IU/mL concentration. […] MedChemExpress, MCE China, Shanghai, China) was obtained in a powder form and was dissolved in ultrapure water to obtain solutions with concentrations as described in Table 22 (L, M and H indicate low, medium and high montelukast doses, respectively) Wounds were wrapped up with transparent dresser after drug administration. Photographs were taken for each wound every other day from Day 0. Photos were scanned into a computer, and wound areas calculated using ImageJ image analysis software (National Institutes of Health, […]). The unhealed wound area was expressed as a percentage of the original wound area: At/A0×100%, where A0 and At refer to the initial area at Day 0 and the wound area at the date of measurement (time t), respectively. […] Half of the tissue was preserved in 10% neutral buffered formalin (Nanchang […] Experimental Equipment Co., Ltd., Nanchang, […] Provence, China), and analyzed by histological embedding in paraffin wax, sectioning and staining. HE and Masson stained paraffin sections were analyzed under an optical microscope. Skin regeneration, fibroblastic proliferation, collagen regeneration scores and inflammation scores were estimated. The rest of the samples were stored at -80° C. for further analysis. […] The supernatant was collected, and the extracted protein was used for ELISA analysis using standard ELISA test kits and an ELISA reader (SH-1000 Hitachi, Japan). […] (Beijing, China).

[3] = wound tissue, rhEGF 100 IU/wound

B1: rhEGF: Recombinant Human Epidermal Growth Factor, 5000 IU/mL in normal saline (protein, UniProt P01133 23-1207, looked up)
Pro-epidermal growth factor: PQHWSCPEGTLAGNGNSTCVGPAPFLIFSHGNSIFRIDTEGTNYEQLVVDAGVSVIMDFHYNEKRIYWVDLERQLLQRVFLNGSRQERVCNIEKNVSGMAINWINEEVIWSNQQEGIITVTDMKGNNSHILLSALKYPANVAVDPVERFIFWSSEVAGSLYRADLDGVGVKALLETSEKITAVSLDVLDKRLFWIQYNREGSNSLICSCDYDGGSVHISKHPTQHNLFAMSLFGDRIFYSTWKMKTIWIANKHTGKDMVRINLHSSFVPLGELKVVHPLAQPKAEDDTWEPEQKLCKLRKGNCSSTVCGQDLQSHLCMCAEGYALSRDRKYCEDVNECAFWNHGCTLGCKNTPGSYYCTCPVGFVLLPDGKRCHQLVSCPRNVSECSHDCVLTSEGPLCFCPEGSVLERDGKTCSGCSSPDNGGCSQLCVPLSPVSWECDCFPGYDLQLDEKSCAASGPQPFLLFANSQDIRHMHFDGTDYGTLLSQQMGMVYALDHDPVENKIYFAHTALKWIERANMDGSQRERLIEEGVDVPEGLAVDWIGRRFYWTDRGKSLIGRSDLNGKRSKIITKENISQPRGIAVHPMAKRLFWTDTGINPRIESSSLQGLGRLVIASSDLIWPSGITIDFLTDKLYWCDAKQSVIEMANLDGSKRRRLTQNDVGHPFAVAVFEDYVWFSDWAMPSVMRVNKRTGKDRVRLQGSMLKPSSLVVVHPLAKPGADPCLYQNGGCEHICKKRLGTAWCSCREGFMKASDGKTCLALDGHQLLAGGEVDLKNQVTPLDILSKTRVSEDNITESQHMLVAEIMVSDQDDCAPVGCSMYARCISEGEDATCQCLKGFAGDGKLCSDIDECEMGVPVCPPASSKCINTEGGYVCRCSEGYQGDGIHCLDIDECQLGEHSCGENASCTNTEGGYTCMCAGRLSEPGLICPDSTPPPHLREDDHHYSVRNSDSECPLSHDGYCLHDGVCMYIEALDKYACNCVVGYIGERCQYRDLKWWELRHAGHGQQQKVIVVAVCVVVLVMLLLLSLWGAHYYRTQKLLSKNPKNPYEESSRDVRSRRPADTEDGMSSCPQPWFVVIKEHQDLKNGGQPVAGEDGQAADGSMQPTSWRQEPQLCGMGTEQGCWIPVSSDKGSCPQVMERSFHMPSYGTQTLEGGVEKPHSLLSANPLWQQRALDPPHQMELTQ
modifications: Pro-epidermal growth factor
notes: Recombinant Human Epidermal Growth Factor, 5000 IU/mL in normal saline
[1]
  VEGF content, Mean: 4.55 pg/g
[2]; Day 2, rhEGF 100 IU/wound once daily topically
  remaining wound area versus the initial wound: 85.73 ± 10.29%
[2]; Day 4, rhEGF 100 IU/wound
  remaining wound area versus the initial wound: 68.15 ± 16.47%
[2]; Day 6, rhEGF 100 IU/wound
  remaining wound area versus the initial wound: 30.85 ± 1.87%
[2]; Day 8, rhEGF 100 IU/wound
  remaining wound area versus the initial wound: 16.93 ± 4.03%
[2]; Day 12, rhEGF 100 IU/wound
  remaining wound area versus the initial wound: 5.02 ± 3.03%
[2]; [3]
  Hyp content (μg/mg tissue weight), single animals: 6.54 μg/mg tissue weight and 4.89 μg/mg tissue weight and 5.39 μg/mg tissue weight and 5.45 μg/mg tissue weight
  Hyp content, Mean (n = 4): 5.57 μg/mg tissue weight
